Data published in patent US20100120681A1 (Ablynx, published 2010).

T1: E. coli expressed VEGF109 (human, UniProt P15692 207-315)
T1 construct: also called hVEGF109
T1 sequence: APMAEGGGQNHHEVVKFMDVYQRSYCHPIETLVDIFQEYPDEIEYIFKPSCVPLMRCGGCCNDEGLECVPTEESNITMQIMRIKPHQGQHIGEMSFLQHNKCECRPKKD


Key:
[1] = target: T2, hVEGF165 (R&D Systems) (human, UniProt P15692 27-191); test: SPR Biacore 3000, periplasmic extract over VEGF165-coated CM5 chip
T2 construct: mature; also called biotinylated hVEGF165
Description: (§1) Analysis of the results was done using BIAevaluation software. Off-rates were determined by the ‘fit kinetics separate ka/kd’ model, langmuir dissociation. A time interval of ±100s was used for the fitting.

[2] = target: T1, E. coli expressed VEGF109; test: SPR Biacore 3000, periplasmic extract over VEGF109-coated CM5 chip
Description: as §1

T2 sequence (P15692 other isoform, or with tags, fused parts or gaps): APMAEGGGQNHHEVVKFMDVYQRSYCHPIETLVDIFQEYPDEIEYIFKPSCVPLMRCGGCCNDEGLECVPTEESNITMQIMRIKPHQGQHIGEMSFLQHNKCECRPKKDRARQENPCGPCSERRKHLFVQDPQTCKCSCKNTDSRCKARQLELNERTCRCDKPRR

Row | Binder | koff [1] [s⁻¹] | koff [2] [s⁻¹]
1 | PVEGFPMP42A5 (VHH, tested as periplasmic extract; not shown: C-terminal c-myc tag and (His)6 tag from the vector) VHH: EVQLVESGGGLVQAGGSLRLSCAASGRTFSGVDVAWFRQAPGKEREFVAALAWSGIRTYYAVSVKGRFTISRGDPNDTVYLQMTSLKPEDTAVYYCATGRASRTSDYYTDRIYDSWGQGAQVTVSS | 0.00154 | 0.00167
2 | PVEGFPMP42A3 (VHH, tested as periplasmic extract; not shown: C-terminal c-myc tag and (His)6 tag from the vector) VHH: EVPMVESGGGLVQAGGSLRLSCAASGRTFSGVDVAWFRQAPGKEREFVAALAWSGIRTYYAVSVKGRFTISRGDPNDTVYLQMTSLKPEDTAVYYCATGRASRTSDYYTDRIYDSWGQGAQVTVSS | 0.00259 | 0.00284
3 | PVEGFPMP42C1 (VHH, tested as periplasmic extract; not shown: C-terminal c-myc tag and (His)6 tag from the vector) VHH: EVQLVESGGGLVQAGGSLRLSCAASGRTFSGVDVAWFRQAPGKEREFVAALAWSGIRTYYAVSVKGRFTISRGNPNDTVYLQMTSLKPEDTAVYYCATGRAYRGSDYYTDRIYDSWGQGAQVTVSS | 0.00835 | 0.00825
4 | PVEGFPMP42E3 (VHH, tested as periplasmic extract; not shown: C-terminal c-myc tag and (His)6 tag from the vector) VHH: EVQLVESGGGLVQAGGALRLSCAASGRTFETYRMGWFRQAPGKEREFVALINWSSGTTIYADSVKGRFTISGDNAKDTVYLEMNSLKPEDTAVYYCAVGRRWSGSYYSALAYQYWGQGTQVTVSS | 0.0015 | 0.000689
5 | PVEGFPMP42D5 (VHH, tested as periplasmic extract; not shown: C-terminal c-myc tag and (His)6 tag from the vector) VHH: EVQLVESGGGLVHAGGALRLSCAASGRAFETYRMGWFRQAPGKEREFVALINWSSGTTVYADSVKGRFTISGDNAKDTVYLEMNSLKPEDTAVYYCAVGRRWSGSYYSALAYQYWGQGTQVTVSS | 0.00147 | 0.000368
6 | PVEGFPMP42D7 (VHH, tested as periplasmic extract; not shown: C-terminal c-myc tag and (His)6 tag from the vector) VHH: EVQLVESGGGLVQAGGALRPSCAASGRTFETYRMGWFRQAPGKEREFVALINWSSGTTVYADSVKGRFTISGDNAKDTVYLEMNSLKPEDTAVYYCAVGRRWSGSYYSALAYQYWGQGTQVTVSS | 0.00094 | 0.000176
7 | PVEGFPMP42C7 (VHH, tested as periplasmic extract; not shown: C-terminal c-myc tag and (His)6 tag from the vector) VHH: EVQLVESGGGLVQAGGALRLSCAASGRTFETYRMGWFRQAPGKEREFVALINWSSGTTIYADSVKGRFTISGDNAKDTVYLEMNSLKPEDTAVYYCAVGRRWSGSYYSALAYQYWGKGTQVTVSS | 0.00151 | 0.00061
8 | PVEGFPMP42C10 (VHH, tested as periplasmic extract; not shown: C-terminal c-myc tag and (His)6 tag from the vector) VHH: EVQLVESGGGLVQAGGALRLSCAVSGRTFESYRMGWFRQAPGKEREFVSLINWSSGKTIYADSVKGRFTISGDNAKDTVYLEMNSLKPEDTAVYYCAVGRAWSGSYYSALAYQYWGQGTQVTVSS | 0.0168 | 0.00753
9 | PVEGFPMP42B10 (VHH, tested as periplasmic extract; not shown: C-terminal c-myc tag and (His)6 tag from the vector) VHH: EVQLVESGGGLVQAGGSLRLSCTASGRALDTYTVTWFRQTPGKEREFVASNRWNAKPYTTDSVKGRFTISRDNAKNTVYLQMNSLKPEDTAVYYCAADLTTWADGPYRYWGQGTQVTVSS | 0.000362 | 0.000227
10 | PVEGFPMP42C5 (VHH, tested as periplasmic extract; not shown: C-terminal c-myc tag and (His)6 tag from the vector) VHH: KVQLVESGGGLVQAGGSLRLSCAASGRALDTYTVTWFRQTPGKEREFVASIRWNAKPYTTDSVKGRFTISRDNAKNTVYLQMNSLKPEDTAIYYCAADLTTWADGPYRYWGQGTQVTVSS | 0.000641 | 0.000448

Results, then the binder that gave them:

Row | koff [1] [s⁻¹] | koff [2] [s⁻¹] | Binder
11 | 0.00165 | 0.00176 | PVEGFPMP42F10 (VHH, tested as periplasmic extract; not shown: C-terminal c-myc tag and (His)6 tag from the vector) VHH: EVQLVESGGGLVQAGGSLRLSCAASGRTFSGVDVAWFRQATGKEREFVAALAWSGIRTYYAVSVKGRFTISRGDPNDTVYLQMTSLKPEDTAVYYCATGRASRTSDYYTDRIYDSWGQGAQVTVSS
12 | 0.00149 | 0.000315 | PVEGFPMP42H9 (VHH, tested as periplasmic extract; not shown: C-terminal c-myc tag and (His)6 tag from the vector) VHH: EVQLVESGGGLVQAGGALRLSCAASGRTFETYRMGWFRQAPGKEREFVALINWSSGTTVYADSVKGRFTISGDNAKDTVYLEMNSLKPEDTAVYYCAVGRRWSGSYYSALAYQYWGQGTQVTVSS
13 | 0.02 | 0.00774 | PVEGFPMP42E4 (VHH, tested as periplasmic extract; not shown: C-terminal c-myc tag and (His)6 tag from the vector) VHH: EVQLMESGGGLVQAGGSLRLSCAVSGRTFESYRMGWFRQAPGKEREFVSLINWSSGKTIYADSVKGRFTISGDNAKDTVYLEMNSLKPEDTAVYYCAVGRAWSGSYYSALAYQYWGQGTQVTVSS
14 | 0.00634 | 0.00411 | PVEGFPMP42D10 (VHH, tested as periplasmic extract; not shown: C-terminal c-myc tag and (His)6 tag from the vector) VHH: EVQLVESGGGLVQAGGALRLSCAASGRTFETYRMGWFRQAPGKEREFVALINWSSGITVYLDSVKGRFTISGDNAKDTVYLEMNSLKPEDTAVYYCAVGRAWSGSYYSALAYQYWGQGTQVTVSS
15 | 0.000528 | 0.000315 | PVEGFPMP42H5 (VHH, tested as periplasmic extract; not shown: C-terminal c-myc tag and (His)6 tag from the vector) VHH: EVQLVESGGGLVQAGGSLRLSCTASGRALDTYTVTWFRQTPGKEREFVASNRWNAKPYVTDSVKGRFTISRDNAKNTVYLQMNSLKPEDTAVYYCAADLTTWADGPYRYWGQGTQVTVSS
16 | 0.000501 | 0.000278 | PVEGFPMP42F1 (VHH, tested as periplasmic extract; not shown: C-terminal c-myc tag and (His)6 tag from the vector) VHH: EVQLVESGGGLVQPGGSLRLSCAASGRALDTYTVTWFRQTPGKTREFVASVRWNAKPYTTDSVKGRFTISRDNAKNTVYLQMNSLKPEDTAVYYCAADPTTWADGPYRYWGQGTQVTVSS
17 | 0.000447 | 0.000251 | PVEGFPMP42G5 (VHH, tested as periplasmic extract; not shown: C-terminal c-myc tag and (His)6 tag from the vector) VHH: EVHLVESGGGLVQAGGSLRLSCAASGRALDTYTVTWFRQTPGKTREFVASVRWNAKPYTTDSVKGRFTISRDNAKNTVYLQMNSLKPEDTAVYYCAADPTTWADGPYRYWGQGTQVTVSS
18 | 0.000311 | 0.000134 | PVEGFPMP42E2 (VHH, tested as periplasmic extract; not shown: C-terminal c-myc tag and (His)6 tag from the vector) VHH: EVQLVESGGGLVQAGGSLRLSCAASGRALDTYTVTWFRQTPGKGREFLASIRWNAKPYTTDSVKGRFTMSRDNAKNTVYLQMNSLRPEDTAVYYCAADPTTWADGPYRYWGQGTQVTVSS
